Measured values from patent US20230134571A1 (INTERNATIONAL AIDS VACCINE INITIATIVE, published 2023).

Experiments:
Test in all cases: cell-based or functional assay
[1] = biological target: HIV Env, isolate REJO4541.67 (HIV)
[2] = biological target: HIV Env, isolate RHPA4259.7 (HIV)
[3] = biological target: HIV Env, isolate WEAU_d15_410_5017 (HIV)
HIV Env, isolate CNE19 = HIV Env, isolate CNE19 (HIV)
HIV Env, isolate CNE20 = HIV Env, isolate CNE20 (HIV)
HIV Env, isolate CNE53 = HIV Env, isolate CNE53 (HIV)
HIV Env, isolate CNE58 = HIV Env, isolate CNE58 (HIV)
HIV Env, isolate 249MB10 = HIV Env, isolate 249MB10 (HIV)
[4] = biological target: HIV Env, isolate 7030102001E5(Rev-) (HIV)
[5] = biological target: HIV Env, isolate BF1266.431a (HIV)
[6] = biological target: HIV Env, isolate CAP210.2.00.E8 (HIV)
[7] = biological target: HIV Env, isolate CAP45.2.00.G3 (HIV)
[8] = biological target: HIV Env, isolate Ce0393_C3 (HIV)
[9] = biological target: HIV Env, isolate Ce2010_F5 (HIV)
[10] = biological target: HIV Env, isolate Ce2060_G9 (HIV)
[11] = biological target: HIV Env, isolate ZM109F.PB4 (HIV)
[12] = biological target: HIV Env, isolate ZM197M.PB7 (HIV)
HIV Env, isolate T278-50 = HIV Env, isolate T278-50 (HIV)
[13] = biological target: HIV Env, isolate ZM249M.PL1 (HIV)
[14] = biological target: HIV Env, isolate 3817.v2.c59 (HIV)
[15] = biological target: HIV Env, isolate 6480.v4.c25 (HIV)
[16] = biological target: HIV Env, isolate P1981_C5_3 (HIV)
[17] = biological target: HIV Env, isolate X1632_S2_B10 (HIV)

Binder	IC80 (µg/ml) with constrains [1] [µg/mL]	IC80 (µg/ml) with constrains [2] [µg/mL]	IC80 (µg/ml) with constrains [3] [µg/mL]	IC80 (µg/ml) with constrains (HIV Env, isolate CNE19) [µg/mL]	IC80 (µg/ml) with constrains (HIV Env, isolate CNE20) [µg/mL]	IC80 (µg/ml) with constrains (HIV Env, isolate CNE53) [µg/mL]	IC80 (µg/ml) with constrains (HIV Env, isolate CNE58) [µg/mL]	IC80 (µg/ml) with constrains (HIV Env, isolate 249MB10) [µg/mL]	IC80 (µg/ml) with constrains [4] [µg/mL]	IC80 (µg/ml) with constrains [5] [µg/mL]	IC80 (µg/ml) with constrains [6] [µg/mL]	IC80 (µg/ml) with constrains [7] [µg/mL]	IC80 (µg/ml) with constrains [8] [µg/mL]	IC80 (µg/ml) with constrains [9] [µg/mL]	IC80 (µg/ml) with constrains [10] [µg/mL]	IC80 (µg/ml) with constrains [11] [µg/mL]	IC80 (µg/ml) with constrains [12] [µg/mL]	IC80 (µg/ml) with constrains (HIV Env, isolate T278-50) [µg/mL]	IC80 (µg/ml) with constrains [13] [µg/mL]	IC80 (µg/ml) with constrains [14] [µg/mL]	also measured
ePGDM9 (antibody, V domains shown) VH: QAQLVQSGPEVRKPGTSVKVSCKNPGNTLTTYDLHWVRQVPGQGLQWMGWISHEGDKKVIVERFKAKVTIDWDRSTNTAYLQLSGLTSEDTAVYYCAKGSKHRLRDYALYDEDGALNWAVDVDYLANLEFWGQGTAVTVSS VL: DIVLTQSPLSLSVTPGESASISCKSSQSLIHGDRNNYLAWYVQKPGRSPQLLIDLASERASGVPDRFSGSGSRKDFTLKISRVETEDVGTYYCMQGRESPWTFGQGTKVDIK	0.003	0.578	0.009	0.012	0.008	0.029	0.008	0.028	> 100	0.008	0.221	0.005	0.017	> 100	0.538	0.106	0.092	2.02	0.008	0.64	IC80 (µg/ml) with constrains [15]: > 100 µg/mL; IC80 (µg/ml) with constrains [16]: 0.585 µg/mL; IC80 (µg/ml) with constrains [17]: 0.01 µg/mL
ePGDM5 (antibody, V domains shown) VH: QAQLVQSGPEVRKPGTSVKVSCKNPGNTLTTYDLHWVRQVPGQGLQWMGWISHEGDKKVIVERFKAKVTIDWDRSTNTAYLQLSGLTSEDTAVYYCAKGSKHRLRDYALYDEDGALNWAVDVDYLANLEFWGQGTAVTVSS VL: DFVLTQSPLSLSVTPGESASISCKSDHSLQHGDRNNYLAWYVQKPGRSPQLLIDLASERASGVPDRFSGSGSRKDFTLKIDRVEAEDVGTYYCMQGRESPWTFGQGTKVDIK	0.005	1.86	0.003	0.012	0.015	0.081	0.015	0.045	> 100	0.014	0.226	0.004	0.063	> 100	0.044	0.121	0.141	4.23	0.138	0.929	IC80 (µg/ml) with constrains [15]: > 100 µg/mL; IC80 (µg/ml) with constrains [16]: 1.18 µg/mL; IC80 (µg/ml) with constrains [17]: 0.012 µg/mL
